Data as given in the nanobody polyreactivity screen of Harvey et al. (2022).

assay: yeast display, Sf9 membrane polyspecificity reagent, FACS + sequencing; frameworks hold sequencing errors
In short: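 Polyreactivity labels are assigned by the sorting gate from which each nanobody was recovered. The gates were low and high (top ~1%), set on anti-HA fluorescence for expression and streptavidin fluorescence for reagent binding. Before sorting, galactose-induced (36–48 hours) yeast display cells were stained for 1 hour at 4 °C with 10% biotinylated, detergent-solubilized Sf9 membrane reagent.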

Sequence | polyreactivity (PSR sort gate)
KVQLVESGGGLVQAGGSLRLSCAASGRTFVYYAMGWYRQAPGKERELVAAISSGGSTNYADSVKGRFTISRDNAKNTVYLQMNSLKPEDTAVYYCNADWGFPDVKETGVRFDYWGQGTQVTVSS | low polyreactivity
QVQLVESGGGLVHAGGSHRLSCAATGRIFDANARGGYRQAPGKERELVAVISSRGGSTYYADSVKGRFTISRDNAKNTVYLQMNSLKPEDTAVYYCAKGFSVAGYDYWGQGTQVTVSS | low polyreactivity
QVQQQESGGGLVQAGGSLRLSCAASGTIFQLTVMGRYRQAPGKERELVASIDYGGNTNYADSVKGRFTISRDNAKNSVYLQKNSMKPEDTEVYYCEASYESWTTHPYWGQGTQVTVSS | low polyreactivity
QVQLVESGGGLVQAGGSLRLSCAASGRIFGPNDMGWYRQAPGKERELVAAITDSGDITYYADSVKGRFTISRDIAKNSVYLQMNSLKPEDTAVYYCAADHTYENEYWGQGTQVTVSS | low polyreactivity
QVQLVESGGGLDQAGGSLRLSCAASGIILYRNGMGCYRQAPGKETELVAVISRRGGTYYADSVKGRFTISRDNAKNTVYLQVNSLKPEDTAVYYCAAYLSQKGNFRGGGDYWGQGTQVTVSS | high polyreactivity
QVQLVESAAGLVQAGGSLSLICAASGYIFATYAMGWYIQAPGTETELVAAITSGGITNYADSVKGRFTISRDNAKNTVYLQMNSLKPEDTAVYYCATGRRRYYFREYYYWGQGTQVTVSS | high polyreactivity
QVQLVESGGGLVQAGGSLRLSCAASGGTFRANAMGWYRQAPGKERELVAAISFRGGTTYYADSVKGRFTISRDNAKNTVYLQMNSLKPEDTAVYYCAARFLYYFRGKGYDYWGQGTQVTVSS | high polyreactivity
QVQLVESGGGLVQAGGSLRLSCAGSGFIFTDYAMGWYRQAPGKERELVATISWSGSSTYYADSVKGRFTISRDNAKNTVYLQMNSLKPEDTAVYYCAAEFWYTYPYLVDYWGQGTQVTVSS | low polyreactivity
QVQLVESGGGLVQAGGSLRLSCAASGRTFSKYAMGWYRQAPGKERELVAAISKRGGSTSYADSVKGRFTISRDNAKNTVYLQMNSLKPEDTAVYYCAADGNRNYLYWPYGYWGQGTQVTVSS | high polyreactivity
QVQLVESGGGLVQAGGSLRLSCAASGFTFGGYAMGWYRQAPGKERELVAAIDSSGGRTYYADSVKGRFTISRDNAKNTVYLQMNSLKPEDTAVYYCNAGNSGWWRYDYDYWGQGTQVTVSS | high polyreactivity
QVQLVESGGGLVQAGGSLRLSCAASGSTLSKYAMGWYRQAPGKERELVATISIRGGNTYYADSVKGRFTFSRDNAKNTVYLQMNSLKPEDTAVYYCAARRVNAPPSYRQKAGYDYWGQGTQVTVSS | high polyreactivity
QFQLVESGGGLVQAGGSLRLSCAASGSTIIKNAMGWYRQAPGKERELVAAINWSVTRTYYADSVKGRFTISRDNAKNTVYLQMNSLKPEDTAVYYCAKVIARFVRYDYWGQGTQVTVSS | high polyreactivity
QVQLVESGGGLVQAGGSLRLSCAASGRTFIKYAMGWYRQAPGKERELVAAITYSAGSTSYADSVKGRFTISRDNAKNTVYLQMNSLKPEDTAVYYCNAVPTWWTQEVGSYKSLGYWGQGTQVTVSS | low polyreactivity
QVQLVESGGGLVQAGGSLRLSCAASGSIYTWYAMVWYRQAPGKERELVAAITRGGSTYADSVKGRFTISRDNAKNTVFLQMNSLKPEDTAVYYCATDLQPRSFLYWYNYWGQGTQVTVSS | low polyreactivity
QVQLVESGGGLVQAGGSLRLSCAASGFTFIHYGMGWYRQAPGKERELVAAITWRGDRTYADSVKGRFTISRDNAKNTVYLQMNSLKPEDTAVYYCAVGFYYFSSWYSYDYWGQGTQVTVSS | high polyreactivity
KVQLVESGAGLVQAGGSLRLSCAASGITFGWYAMGWYRQAPGKERELVATINSGGSTNYADSVKGRFTISRDNAQNSVYLQMNSLKAEDTAVYYCAADGLIRWYDYWGQGTQVTVSS | low polyreactivity
QVQLVESGGGLVQAGGSLRLSRAASGFIFVQNAMVWYRQAPGKERELVASLTSGGTTNYADSVKGRFTISRDNAKNTVYLQMNSLKPEDTAVYYCNARLERTPSLYLYGSWGQGTQVTESS | low polyreactivity
QVQLVESGGGLVQAGGSLRLSCAASGSTFRVNAMGWYRQAPGKERELVAVITSGGSTYADSVKGRFTISRDNAKNTVYLQMNSLKPEDTAVYYCAAESRWSWVHWSAYTYDYWGQGTQVTVSS | low polyreactivity
QVQLVESGGVLVQAGGSLRLSCAASGRTSFYYGVGWSRQAPGKERELVAGINYGGGSTYYADSVKGRFSISRDTAKNTVYLQMNSLKPEDTAVYYCAAYRRTLGDYWGQGTQVTVSS | low polyreactivity
QVQLVESGGGLVQAGGSLRLSCAASGFTFSSNAMGWYRQAPGKQRELVAAISKGGGSTYYADSVKGRFTISRDNAKNTGYLQMNSLKPEDTAVYYCAKEYDTYAYTYPYNYWGQGTQVTVSS | high polyreactivity
QVQLVESGGGLDQAGGSLRLSCAASGFTLHSYALGWYRQAPGKERELVAAITTGGSTYYADSVKGRFTISRDNAKNTVYLQMNSLKPEDTAVYYCAAEDPGPYGGYVYWGQGTQVTVSS | low polyreactivity

Sequence | polyreactivity (PSR sort gate)
QVQLEDSGGGLVQAGGSLRLSCAASGRTFTYYAMGWYRQAPGKERELVATISYSGGSTYYADSVKGRFTISRDNAKNTVYLQMNSLKPEDTAVYYCATSGSGPWWKLYYSGQGTQVTVSS | low polyreactivity
QVQIVDSGGGLVQAGGSLRISCAASGYISRVYAMGWYRQAPRKERELVAAITRSTTYYADSVKGRFTISRDNAKNTVYLQMNSLKPEDSAVYYCNAVWASPGQVRMYYWGQGTQVNVSS | high polyreactivity
QVQLVESAGGLVQAGGSHRLSCAASGFIFDSYAMGCYRPAPGKERELVAAITYSGSSTYYADSVKGRFTISRDNAKNTVYLQMNSLKPEDTGVYYCAAVWRYSHLYGYWGQGTQVTVSS | high polyreactivity
QVQLVESGGGLVQAGGSLRLSCAASGLIFSGYDMGWYRQAPGKERELVAAITWSGGRTYADSVKGRFTISRDNAKNTVYLQMNSLKPEDTAVYYCNADAYIDYWPYTWDYDYWGQGTQVTVSS | high polyreactivity
QVQLVESGGGLVQAGGSLRLSCAASGRTFNTYAMGWYRQAPGKERELVAAISSGRRTYYADSVKGRFTISRDNAKNTVYLQMNSLKPEDTAVYYCAKRGRYSYKYDYWGQGTQVTVSS | high polyreactivity
QVQLVESGGGLVQAGGSLRLSCAASGSIFPYYAMGWNRQAPGKERELVATITSRGGSTYYADSVKGRFTISRDNAKNTVYLQMNSLKPEDTAVYYCAKEYRYYRRRYDYWGQGTQVTVSS | high polyreactivity
QVQLVESGGGLVHAGGSLRLSCAASGSIFPSNAMGWYREAPGKERELVAAISQSGGRTYYADSVKGRFTISRDNAKNTVYLQMNSLKPEDTAVYYCAADHRRAGMDYWGQGTQVTVSS | low polyreactivity
QVQLVESGGGLVQAGGSLRLTCAASGLIFGYNAMGWYRQAPGKEREFVAGISVIDGRTYYADSVKGRFTISRDNAKNTVYLQMISLKPEDTAVYYCAADRWYKYYFLTYGYWGQGTQVTVSS | low polyreactivity
QFQLVESGGGLVQAGGSLRLSCAASGSTFGVYAMGWYRQAPGKERELVATINSGGSTNYADSVKGLFTISRDNAKNTVYLQMNSLKPEDTAVYYCAAGPFWQDFYVYEYDYWGQGTQVTVSS | low polyreactivity
QVQLVESGGGLVQAGGSLRLSCAASGIIFTKYAMGWYRQAPGKERELVAAITASGGSTYYADSVKGRFTISRDNAKNTVYLQMNSLKPEDTAVYYCAARSQSRYGYWGQGTQVTVSS | high polyreactivity
QVQLVESGGGLVQAGGSLRLSCAASGSIFGYYAMGWYRQAPGKERELVAAIWRGDNTYYADSVKGRFTISRDNAKNTVYLQMNSLKPEDTAVYYCAARYWSRRIFREGYWGQGTQVTVSS | low polyreactivity
QVQLVESGGGLVQAGGSLRLSCAASGFTFKYNAMGWYRQAPGKERELVAAITASGGSTRYADSVKARFTISRDNAKNTVYLQMNSLKPEDTAVNYCAARKWFPRYSASPRSHGPYDYWGLGTQVTVSS | high polyreactivity
QDQLVESGGGLVQAGGSLRLSCAASGSIFPGYAMGWYRKAPGKEREFVATITWSGGSTYYADSVKGRFTISRDNAKNTVYLQMNSLKPEDTAVYYCNADSNWYYQWNYYGLYDYWGQGTQVTVSS | low polyreactivity
QVQLVESGGGLVQAGGSLRLSCAASGIIFRRYAMGWYRQAPGKERELVAVITSGGSTNYADSVKGRFTISRDNAKNTVYLQMNSLKPEDTAVYYCAAKGWVYWIRSRYDYWGQGTQVTVSS | high polyreactivity
QVQLVESGGGLVQAGGSLRLSCAASGSTFPRYAMGWYRQAPGKERELVAAISGRGGSTYYADSVKGRFTISRDYAKNTVYLQMNSLKPEDTAVYYCNAYRRYYTMYYWGQGTQVTVSS | high polyreactivity
HVQLQESDGGLVQAGGSLRLSCAASGSISPQYYMCWYRQAPGKEREFVAISKGTTTYYADSVKGRLTISRVNAKNTVYLQMNSLKPEDTAVYCCAAGRWLQKVHAYWDQGTQVTVSS | low polyreactivity
QVQLVESGGGLVQAGGSLRLSCAASGSTFYWNVMGWYRQAPGKERELVAAINRSDGSTYYADSVKGRFTISRDNAKNTVYLQMNSLKPEDTAVYFCNAVTKHPQSVPYAYGYWGQGTQVTVSS | high polyreactivity
QVQLVESGGGLVQAGGSLLLSCSASGRTFPVNAMGWYRKAHGKEREFVAVISSTGTTYYADSVKGRFTISRDNAKNTVYLQMNSLQPVDTAVYYCARRSNRRAYGNRVGVRRTVDYWGQGTQVTVSS | low polyreactivity
QVQLVESGGGLVQAGGSLRLSCADSGRIFGYYTMGWSRQAPGKERELVAAITSSGSSTYYADSVKGRFTISRDNAKNTVYLQMNSLKPEDTAVYYCNARAYWRNEYWGQGTQVTVSS | high polyreactivity
QVQLVESGGGLVQAGGSLRLSCAASGSTFPKYAMGWYRQAPGKERELVASISVTTGSTYYADSVKGRFTISRDNAKITVYLQMNSLKPEDTAVYYCAKYRPGIPYYQYGSWGQGTQVTVSS | high polyreactivity
